This passage reports activity results from patent US20240392262A1, “TRANSPOSASE AND USES THEREOF” (Poseida Therapeutics, Inc., published 2024).

One data set addresses T1, PAH6 Left TAL-PBx (synthetic construct).
T1 chain: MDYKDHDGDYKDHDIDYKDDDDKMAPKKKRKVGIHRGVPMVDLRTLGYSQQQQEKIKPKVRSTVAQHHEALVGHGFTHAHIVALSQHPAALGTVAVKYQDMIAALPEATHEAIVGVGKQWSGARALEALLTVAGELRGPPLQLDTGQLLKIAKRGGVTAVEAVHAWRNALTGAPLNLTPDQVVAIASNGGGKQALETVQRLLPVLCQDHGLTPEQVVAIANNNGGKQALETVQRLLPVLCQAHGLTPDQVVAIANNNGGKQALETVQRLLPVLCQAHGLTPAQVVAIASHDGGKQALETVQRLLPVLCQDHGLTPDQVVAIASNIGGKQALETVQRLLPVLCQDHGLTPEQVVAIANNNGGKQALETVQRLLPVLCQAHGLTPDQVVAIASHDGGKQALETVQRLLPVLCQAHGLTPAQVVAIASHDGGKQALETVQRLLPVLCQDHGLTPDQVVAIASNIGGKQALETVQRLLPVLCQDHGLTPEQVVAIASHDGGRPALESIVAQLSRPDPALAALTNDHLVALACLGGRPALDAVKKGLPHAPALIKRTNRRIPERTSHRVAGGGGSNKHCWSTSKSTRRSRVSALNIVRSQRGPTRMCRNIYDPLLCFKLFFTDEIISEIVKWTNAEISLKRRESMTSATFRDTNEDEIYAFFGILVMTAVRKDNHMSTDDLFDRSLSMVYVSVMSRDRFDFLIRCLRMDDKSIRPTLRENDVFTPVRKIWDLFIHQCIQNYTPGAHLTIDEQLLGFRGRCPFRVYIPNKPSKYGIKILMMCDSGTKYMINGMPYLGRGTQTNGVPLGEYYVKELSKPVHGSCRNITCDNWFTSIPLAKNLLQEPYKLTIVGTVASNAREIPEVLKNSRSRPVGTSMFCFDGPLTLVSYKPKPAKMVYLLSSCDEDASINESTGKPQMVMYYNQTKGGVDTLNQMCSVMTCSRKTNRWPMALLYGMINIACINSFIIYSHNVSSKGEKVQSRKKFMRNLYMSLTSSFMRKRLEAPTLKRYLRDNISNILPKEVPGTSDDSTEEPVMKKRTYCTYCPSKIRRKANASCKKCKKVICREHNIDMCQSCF
As to the kind of experiment: cell_activity; left only. Particulars: tags: 3xFlag, SV40 NLS.

The target in another data set is T2, PAH6 Right TAL-PBx (synthetic construct).
T2 chain: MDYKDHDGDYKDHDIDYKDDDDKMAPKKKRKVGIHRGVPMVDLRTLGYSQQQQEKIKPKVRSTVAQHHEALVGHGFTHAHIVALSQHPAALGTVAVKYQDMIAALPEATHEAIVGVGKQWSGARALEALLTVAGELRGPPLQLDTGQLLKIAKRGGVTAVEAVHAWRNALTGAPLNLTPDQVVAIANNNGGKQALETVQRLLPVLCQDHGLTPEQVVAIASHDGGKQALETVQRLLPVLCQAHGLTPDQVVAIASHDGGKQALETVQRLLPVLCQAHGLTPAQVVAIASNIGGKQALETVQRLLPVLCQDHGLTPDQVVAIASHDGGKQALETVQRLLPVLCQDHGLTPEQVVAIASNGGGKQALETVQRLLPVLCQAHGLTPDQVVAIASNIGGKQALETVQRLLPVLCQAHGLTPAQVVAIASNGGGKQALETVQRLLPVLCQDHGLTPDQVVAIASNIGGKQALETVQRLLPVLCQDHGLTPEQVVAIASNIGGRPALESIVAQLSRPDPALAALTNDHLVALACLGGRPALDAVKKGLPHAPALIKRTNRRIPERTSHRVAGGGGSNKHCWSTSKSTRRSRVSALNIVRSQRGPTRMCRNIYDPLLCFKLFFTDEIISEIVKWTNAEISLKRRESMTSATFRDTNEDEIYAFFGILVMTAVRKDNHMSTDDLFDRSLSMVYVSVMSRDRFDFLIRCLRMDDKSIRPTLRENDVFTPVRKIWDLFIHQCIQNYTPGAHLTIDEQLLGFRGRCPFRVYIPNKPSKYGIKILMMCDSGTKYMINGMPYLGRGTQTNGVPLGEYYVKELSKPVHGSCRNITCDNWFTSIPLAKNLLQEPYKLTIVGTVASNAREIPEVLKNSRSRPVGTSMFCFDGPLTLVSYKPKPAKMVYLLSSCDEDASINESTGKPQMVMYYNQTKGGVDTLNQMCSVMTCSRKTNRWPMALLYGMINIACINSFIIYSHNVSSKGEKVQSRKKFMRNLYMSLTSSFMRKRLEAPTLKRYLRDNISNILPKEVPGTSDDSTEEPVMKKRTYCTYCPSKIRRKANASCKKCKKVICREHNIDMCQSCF
As to the kind of experiment: cell_activity; right only. Particulars: tags: 3xFlag, SV40 NLS.

B1: PAH6 target (dsDNA)
DNA 1: TTGGCAGCCACTGTCCTAAATATTTTAACCAAATCAAAATCTTATAGTGGCA
DNA 2: TGCCACTATAAGATTTTGATTTGGTTAAAATATTTAGGACAGTGGCTGCCAA
Turning to B1, the activity worked out at 2.7 % GFP+ with PAH6 Left TAL-PBx and 2.5 % GFP+ with PAH6 Right TAL-PBx.
